PMC3650080, “Structural Insights into the UbiD Protein Family from the Crystal Structure of PA0254 from Pseudomonas aeruginosa” (PLoS ONE, 2013)

B1: PA0254 from Pseudomonas aeruginosa (UbiD-like protein) (enzyme, Pseudomonas aeruginosa PAO1, UniProt Q9I6N5 1-496, looked up)
chain: MNRSALDFRHFVDHLRRQGDLVDVHTEVDANLEIGAITRRVYERRAPAPLFHNIRDSLPGARVLGAPAGLRADRARAHSRLALHFGLPEHSGPRDIVAMLRAAMRAEPIAPRRLERGPVQENVWLGEQVDLTRFPVPLLHEQDGGRYFGTYGFHVVQTPDGSWDSWSVGRLMLVDRNTLAGPTIPTQHIGIIREQWRRLGKPTPWAMALGAPPAALAAAGMPLPEGVSEAGYVGALVGEPVEVVRTQTNGLWVPANTEIVLEGEISLDETALEGPMGEYHGYSFPIGKPQPLFHVHALSFRDQPILPICVAGTPPEENHTIWGTMISAQLLDVAQNAGLPVDMVWCSYEAATCWAVLSIDVQRLAALGTDAAAFAARVAETVFGSHAGHLVPKLILVGNDIDVTEIDQVVWALATRAHPLHDHFAFPQIRDFPMVPYLDAEDKARGSGGRLVINCLYPEQFAGQMRAATASFRHAYPTALRRRVEERWSDYGFGDA
notes: PA0254, UbiD-like putative 3-polyprenyl-4-hydroxybenzoate decarboxylase of Pseudomonas aeruginosa PAO1; full-length gene (residues 1-496 modelled); calculated mass of His6-PA0254 57053 Da per subunit; The TEV-cleavable His6 tag was not removed (incomplete cleavage); tag residues -7 to 0 are partly seen in the trigonal crystal; A SeMet-substituted form was used for phasing only; also called UbiD2; …
B2: UbiD from P. aeruginosa (PA5237) (enzyme, Pseudomonas aeruginosa PAO1, UniProt Q9HTV3 1-488, looked up)
chain: MTFKDLRDFIAQLEQRGALKRIQVPISPVLEMTEVCDRTLRAKGPALLFEKPTGFDMPVLGNLFGTPERVALGMGAEDVGALREIGKLLAQLKEPEPPKGLKDAWAKLPMYRKVLSMAPKVLKDAPCQEVVEEGEDVDLGRLPVQTCWPGDVGPLITWGLTVTRGPNKERQNLGIYRQQVIGRNKVIMRWLSHRGGALDYREWCQKHPGQPYPVAVALGADPATILGAVTPVPDTLSEYAFAGLLRGHRTELVKCRGSDLQVPASAEIVLEGVIHPGEMADEGPYGDHTGYYNEVDRFPVFTVERVTRRQKPIYHSTYTGRPPDEPAILGVALNEVFVPILQKQFPEIVDFYLPPEGCSYRMAVVTMKKQYPGHAKRVMLGVWSFLRQFMYTKFVIVTDDDIDARDWNDVIWAITTRMDPKRDTVMIDNTPIDYLDFASPVSGLGSKMGLDATHKWPGETSREWGRAIVKDEAVTRRIDALWSSLGID
notes: PA5237, UbiD (3-polyprenyl-4-hydroxybenzoate decarboxylase) of Pseudomonas aeruginosa PAO1; construct not described; also called UbiD1; bona fide UbiD

Columns and labels:
[1] = target: the molecule itself; test: crystal structure; two crystal forms of His6-PA0254: P2(1) (1 M (NH4)2SO4, 0.1 M Bis-Tris pH 5.5, 1% PEG 3350; 2.3 Å, four subunits in the asymmetric unit) and P3(2)21 (0.1 M Hepes pH 7.5, 0.2 M MgCl2, 10% PEG 400; 1.95 Å, three subunits); dimer told from crystal packing and PISA
[2] = target: the molecule itself; test: SEC; superdex-200 column (GE-Healthcare) calibrated with Ribonuclease-A, Chymotrypsinogen-A, Ovalbumin, Albumin, Catalase and Ferretin; absorbance at 280 nm

Protein	stoichiometry N [1]	stoichiometry N [2]
B1	2	–
B2	–	6
